Experimental data published in the nanobody polyreactivity screen of Harvey et al. (2022).

Assay: yeast display, Sf9 membrane polyspecificity reagent, FACS + sequencing; frameworks hold sequencing errors
Outline: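 Nanobodies came from a synthetic yeast display library in Saccharomyces cerevisiae BJ5465, induced with galactose for 36–48 hours and stained for 1 hour at 4 °C with 10% biotinylated, detergent-solubilized Sf9 membrane reagent. Cells were enriched on streptavidin microbeads and then FACS-sorted, with low and high (top ~1%) gates set on anti-HA fluorescence for expression and streptavidin fluorescence for reagent binding. Each polyreactivity label reflects the gate a clone came from. Genes were amplified by colony PCR, sequenced by MiSeq 2 × 250 and filtered by CDR length.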

| Sequence | polyreactivity (PSR sort gate) |
| --- | --- |
| QVQLVESGGGLVQAGGSLRLSCDASGSTFLTNTMGWYRQAPGKERELVAAISSGDSTYYADSVKGRFTISRDNAKNTVYLQLNSLKPEVTAVYYCARDGGWRNVPRDYWGQGTQVTVSS | low polyreactivity |
| QVQLVESGGGLVQAGGSLRLSCAASGRIFVRNAMGWYRQAPGKEMEFVAAISRSGGSTYYADSVKGRFTISRDNAKNTVYLQMNSLKPEDTAVYYCAADYPKTYTSKFNYWGQGTQVTVSS | high polyreactivity |
| QFQLVESGGGLVQAGGSLRLSCAASVSTVVIYDMGWYRQAPGKERELVAAISYSGGSTYYADSVKGRFTITRDNAKNTVYLQMNSLKPEDTAVYYCNAGVLVLLYAYLPSDLEYWGQGTQVTVSS | low polyreactivity |
| QVQLVESGGGLVQAGGSLRLSCAASGRTLAGNAMGWYRQAPGQERELVAAISQGGGSTYYADSVKGRFTISRDKAKNTVYLQMNSLKPEDTAGYYCAAEIPRLWASFATLWYDYWGQGTQVTVSS | low polyreactivity |
| QVQLVESCGGLVQAGGSLRLSCAASGRTFYFYAMGWYRQAPGKERELVAAISSTGGSTYYADSVKGRFTISRDNAKNTVYIQMNSLKPEDTAVYYCAARKSPRGRGEFYWGQGTQVTVSS | high polyreactivity |
| QVQLVESGGGLVQAGGSLRLSCAASGSIFFTNVMGWYRQAPGKEREFVAAITGGGGSTYYADSVKGRFTISRDNAKNTVYLQMNSLKPEDTAVYYCATKAKPRSGYNYWGQGTQVTVSS | low polyreactivity |
| QVQLVESGGGLVQAGGSLRLSCAAYGRTLGYYAMGWYRPAPGQERELVAAITGSDGSTYADSVKGRFTISRDNAKNTVYLQMNSLKPEDTAVYYCNSKNEHGSLGFDYWGQGTQVTVSS | high polyreactivity |
| QVQLVESGGGLVQAGGSLRLSCAASGGTLDVYAMGWYRQAPGKEREFVAAISWSGGRTYYADSVKGRFTISRDNAKNTVYLQMHSLKPEDTAVYYCATRDRAGYYYWGQGTQVTVSS | high polyreactivity |
| HVQLVESGGGIVQAGGSLRLSCAASGLIVINYAMGRYRQARGKERELVATIRYCGGSTNYADSVKGRFTISRDNAKNTVYLQMNSLKPEDNAVYYCNAGYYPTGYDYWGQGTQVTVSS | low polyreactivity |
| QVQLVESGGGLVQAGGSLRLSCAASGFTFYRYDMGWYRQAPGKERELVAAITNNGGNTYYADSVKGRFTISRDNAKNTVYLQMNSLKPEDTAVYYCATKRYYWRGYWGQGTQVTVSS | high polyreactivity |
| QVQLVESGGGLVQAGGSLRLSCAASGFIYSSYAMGWYRQAPGKERELVAAITRNGGSTYYADSVKGRFTISRDNAKNTVYLQMNSLKPEDTAVYYCAAPRWRGVGRFDYWGQGSQVTVSS | high polyreactivity |
| QVQLVESGGGLVQAGGSLRLSCAASGSIFSTNALGWYRQAPGKERELVAGITRSGGRTYYADSVKGRFTISRDTAKNTVYLQMNSLKPEDTAVYYCTAVRPHRYYSWGQGSQVTVSS | high polyreactivity |
| QVQLVESGGGLVQAGGSLRLSCAASGSTIYENAMGWYRQAPGKERELVAGISRGGGSTYYADSVKGRFTISRDNAKNTVYLQMNSLKPEDTAVYYCAAGSRVQGGYWGQGTQVTVSS | low polyreactivity |
| QVQLVESGGGLVQAGGSLRLRCAASGTTFSDNAMGWYRQAAGKERELVAAITSGGSTYYADSVKGRFTISRDNAKNTVYLQMNSLKPEDTAVYYCAADYWGQGTQVTVSS | low polyreactivity |
| QVQLEESGGGLVQAGGSLRLSCAASGRIFGSYAMGWYRQAAGNERELVAAITRSGGSTYYADSVKGRFTISRDNAKNTVYLQMNSLTPEDTAVYYCAAYFRFSGSAKFGYWGQGTQVTVSS | high polyreactivity |
| QVQLVESGGGLVQAGGSLRLSCAASGFTFRDYVMGWYTQAPGKERELVAAISRSGASTYYADSVKGRFTISRDNAKNTVYLQMNSLKPEDTAVYYCAKTQAGYSPGTYDYWGQGTQVTVSS | high polyreactivity |
| QVQLVESGGGLVQAGGSLRLSCAASGSTFPVYVMGWYRQAPGKERELVAAITRIGGSTYYADSVKGRFTISRDNAKNTVYLQMNSLKPEDTAVYYCAAGGTARDDSWGQGTQVTVSS | low polyreactivity |
| QDQHVESGGGLVQAGGSLRLICAASGSIFIANAMGWYRQAPGKERELVAAITLNGGSTYYADSVKGRFTISRDNAKNTVYLQMNSLKPEDTAVYYCAADWVWVAPQYWFVEYDYWGQGTQVTVSS | low polyreactivity |
| QVQLVESGGGLVQAGGSLRLSCAASGSTFRRYAMGWYRPAPGKERELVAVITSRGGSTYYADSVKGRFTISRDNAKNTVYLQMNSLKPEDTAVYYCAAGYTSGYWANHYTPRFYYWGQGTQVTVSS | high polyreactivity |
| QVQLVESGGGLVQAGGSLRLSCAASGITFSYNAMGWYRQAPGKERELVAAISDIGGSTYYADSVKGRFTISRDNAKITVYLQMNSLKPEDTAVYYCAADEYYQDEYDYWGQGTQVTVSS | low polyreactivity |
| QVQLVESGGGLVQAGGSLRLSCAASGSTFYRYAMGWYRQAPGKETELVAAITWRGGSTYYADSVKGRFTISRDNAKNTVYLQMNSLKPEDTAVYYCAAAKYRRGTRYYYWGQCTQVTVSS | high polyreactivity |
| QVQLVESGGGLVQAGGSLRLSCAASGRTFEQNAMGWYRQAPGKERELVASITSVGSTDYADSVKGRFTISRDNAKNTVYLQMNSLKPEDTAVYYCAKTLCSQNYDFDYWGQGTQVTVSS | low polyreactivity |

| Sequence | polyreactivity (PSR sort gate) |
| --- | --- |
| QVQLVESGGGLVQAGGSLRLSCAASGSIFWRYAMGWYRQAPGKERELVAVISRSGGRTYYADSVKGRFTISRDNAKNTVYLQMNSLKPEDTAVNYCAADYYGVYSKRYGFDYWGQGTQVTVSS | high polyreactivity |
| QVQLVESGGGLVQEGGSLRLSCAASGITFPDYAMGWYRQAPGKERELVAAISRGVNTYYADSVKGRFTISRDNAKNTVYLQMNSLKPEDTAVYYCNRRGSSGYDYWGLGTQVTVSS | low polyreactivity |
| QVQLVESGGGLVQAGGSLRLSCAASGRIFGLYAMGWYRQAPGKERELVAAIRGRGGRTSYADSVKGRFTISRDNAKNTVYLQMNSLKPEDTAVYYCNAELYPWPGVVRYNYWGHGTQVTVSS | high polyreactivity |
| QVQLVESGGGLVQAGGSLRLSCAASGSSFGGYAMGWYRQAPGKERELVARITDRGGSTDYADSVKGRFTISRDNAKNTVYLQKNSLKPEDTAGSYCAKRGDRYEKRPRDYWGQGTQVTVSS | low polyreactivity |
| QVQLVESGGGLVQAGGSLRLSCAASGRTFTYYAMGWYRQAPGKERELVAAITGRGGRTYYADSVKGRFTISRDIAKNTVYLQMNSLKREDTAVYYCATRDPYYSSEYTYGYWGQGTQVTVSS | high polyreactivity |
| QVQLVESGGGLVQAGGSLRLSCAASGSTFPYAMGWYTQAPGKEREFVAAITRSGGSTYYADSVKGRFTISRDNAKNTVYLQMNSLKPEDTAVYYATQRCVWGYHYWGQGTQVTVSS | high polyreactivity |
| QVQHVESGAGLVQAAGSLRLSCAASGSTFSSYALGWYRQAPGKERELVAAISHGDSTYYADSVKGRFTISRDNAKNTVYLQMNSLKPEDSAVYYCAALHEVWGVDYWGQGTHVTVSS | low polyreactivity |
| QVQLVESVGGLVQAGGSLRLSCAASGSIFVTNAMGWYRQAPGKERELVAAISSGGNTNYADSVKGRFTISRDNAKNTVYLQMNSRKPEDTAVYYCAKDPDKVDYVDMDYWGQGTQVTVSS | low polyreactivity |
| QVQLIESGGGLVQAGGSLRLSCAASGRIFYYNAMGWYRQAPGKERELVAVITRSGGSTYYADSVKGRFTISRDTAKNTVYLQMNSLKQEDTAVYYCAKTWKGGYGYDYWGQGTQVTVSS | low polyreactivity |
| HLQLVESGGGLVQAGGSLRLSCAASGSILNFYAMGWYRQAPGTERELVAAISSSGGSTYYADSVKGRFTISRDNAKNTVYLQMNILQPEDTAVYYCNADYSPSSDSEYGYWGQGTQVTVSS | low polyreactivity |
| QVQLVESGGGLVQAGGSLRLSCAATGYTLYYNAMGWYIQAPGKERELVAAITSGGSTSYADSVKGRFTISRDNAKNTVYLQMNRLIPEDTAVYYCAAVFYRRFDYWGQGTQVTVSS | low polyreactivity |
| QVQLVESGGGLVQAGGSLRLSCAASGSTFRYNAMGWYRQAPGKERELVAAITSSGSRTYYADSVKGRFTISRDNAKNTVYLQMNSLKPEDTAVYYCAAYGYYTKVTKYDYWGQGTQVNVSS | high polyreactivity |
| QVQLVESGGRLVQAGGSLRLSGAASVLTFNFNAMGWYRQAPGKERELVAANSYRAGSTYYADSVKGRFTISRDNAKNTVYLQMNSLKPEDTAVYYCAKPTYRFYWGDFDYWGQGTQVTVSS | low polyreactivity |
| QVQLVESGGGLVQAGGSLRLSCAASGFIFSRNAMGWYRQAPGKEREFVAAISGRGGSTYYADSVKGRFTISRDNAKNTVYVQMNSLKPEDTAVYYCAVYSYGQTYSGYYLGQGTQVTVSS | high polyreactivity |
| QVQLVESGGGLVQAGGSLRLSCAASGSTFRQYAMGWYRQAPGKERELVAATTSSGGSTYYADSVKGRFTISRDNAKNTVYLQMNSLKPDDTAVYYCNVDGRSDGDDYWGQGTHVTVSS | low polyreactivity |
| QVQLVESGGGLVQAGGSLRLSCAASGYIFILYAKGWYRQATGKERQLVATISSNAVSTYYADSVKGRFTISRDNAKITVYLQMNSLKPEDTAVYYCNVEYTPNTVSGYDYWGQGTQVTVSS | low polyreactivity |
| QVQLVESGGGLVQSGGSLRLSCAASGSIFDFYAMGWHRQAPGKERELVATITASGGSTYYADSVKGRFTISRDNAKITVYLQMNSLKPVDTAVYYCNADSVYWGQGTQVTVSS | low polyreactivity |
| QVQLVESGGGLVQAGGSLRLSCAASGSTFRYYAMGWYRQAPGKERELVAANTYRATSTYYADSVKGRFTISRDNAKNTVYLQMNSLKPEDTAVYYCAAYSTYSRYDYWGQGTQVTVSS | high polyreactivity |
| QVQLVESGGGLVQAGGSLRLSCAASGGTFYRYAMGWYRQAPGKERELVAAISSSGGSTYYADSVKGRFTISRNNAKNTVYLQMNSLKPEDTAVYYCAAYSFQSHNFDYWGQGTQVTVSS | high polyreactivity |
| QVQLVESGGGLVQAGGSLRLSCAASGRTFIINTMGWYRQAPGKERELVAAISKNGATTNYADSVKGRFTISSDNAKNSVYLQMNSLKPEDTAVYYCNARYSGYLRLDYWGQGTQVTVSS | low polyreactivity |
| QVQLVESGGGLVQAGGSLRLSCAASGFTFGVYAMGWYRQAPGKERELVAAISRSSGRTYYADSVKGRFTISRDNAKNTVYLQMNSLKPVDTAVYYCAADLRYYGYYTRFRYYEMDYWGQGTQVTVSS | high polyreactivity |
